The results in this text go back to paper PMC11067741, “Crystal structure of human peptidylarginine deiminase type VI (PAD6) provides insights into its inactivity” (IUCrJ, 2024).

For orientation: stoichiometry N means a count of units in the complex or per binding partner.

The data set concerns the molecule itself. The data set can be described thus: SEC; analytical SEC on Superdex 200 increase 5/150GL, 20 mM Tris-HCl pH 7.5, 200 mM NaCl, 1 mM TCEP; PAD6 at 1 mg/ml, 0.3 ml/min; calibrated with protein standards. A general note: SEC sorts molecules by how far they enter the pores of the column.

B1: recombinant human peptidylarginine deiminase type VI (PAD6) V2-P694 S10E S446E (enzyme, UniProt Q6TGC4 2-694, looked up)
chain: VSVEGRAMEFQSIIHLSLDSPVHAVCVLGTEICLDLSGCAPQKCQCFTIHGSGRVLIDVANTVISEKEDATIWWPLSDPTYATVKMTSPSPSVDADKVSVTYYGPNEDAPVGTAVLYLTGIEVSLEVDIYRNGQVEMSSDKQAKKKWIWGPSGWGAILLVNCNPADVGQQLEDKKTKKVIFSEEITNLSQMTLNVQGPSCILKKYRLVLHTSKEESKKARVYWPQKDNSSTFELVLGPDQHAYTLALLGNHLKETFYVEAIAFPSAEFSGLISYSVSLVEESQDPSIPETVLYKDTVVFRVAPCVFIPCTQVPLEVYLCRELQLQGFVDTVTKLSEKSNSQVASVYEDPNRLGRWLQDEMAFCYTQAPHKTTSLILDTPQAADLDEFPMKYSLSPGIGYMIQDTEDHKVASMDSIGNLMVSPPVKVQGKEYPLGRVLIGSSFYPEAEGRAMSKTLRDFLYAQQVQAPVELYSDWLMTGHVDEFMCFIPTDDKNEGKKGFLLLLASPSACYKLFREKQKEGYGDALLFDELRADQLLSNGREAKTIDQLLADESLKKQNEYVEKCIHLNRDILKTELGLVEQDIIEIPQLFCLEKLTNIPSDQQPKRSFARPYFPDLLRMIVMGKNLGIPKPFGPQIKGTCCLEEKICCLLEPLGFKCTFINDFDCYLTEVGDICACANIRRVPFAFKWWKMVP
notes: human peptidylarginine deiminase type VI (PAD6), residues V2-P694, called a full-length construct, with the phosphomimetic mutations S10E and S446E; also called phosphomimetic PAD6; human PAD6 phosphomimic mutant; source: HEK cells, transient transfection, purified (glutathione Sepharose, TEV cleavage, reverse HisTrap, Superdex 200); not shown: His6, N-terminal, cleaved; GST, N-terminal, cleaved
For B1, the “stoichiometry N” value was found to be 2.
